Source: PMC4815982

Target: AROS (UniProt Q86WX3)
Assay: Flag-SIRT1 IP, HA-AROS immunoblot
Conditions: reference: wild type, Adriamycin-treated; sites S682

SIRT1 (from UniProt Q96EB6) S682A, Adriamycin-treated
binding against the reference: stronger
